This passage reports protein production results from a protein production outcome set (Wang et al. 2014).

This series is described as follows: label from the status in PepcDB records.
Turning to “MTAHPPRPELQIDIVSDVVCPWCIVGFRQLDQALAATGVLARLRWHPFELNPQMGPEGQNLREHIMEKYGSTPEQSAEARARLTAIGAELGFTFNFTDDSRIVNTFAAHQLLDWAEGQGRQHPLKQALFAAYFTDGRDVSDLSVLLDAVEAAGLDREAAQTALTSGAHQAPVREKQKFWAQHGISGVPSMVFGGKYLLTGAQGADTYAQVIQRCLAEAA”, the protein production result is listed as “not failed”.

Consider “MYLRRFYDEGLAHASYLVGCQETGEACVIDPARDVEPYLLTAKREGLRIVAALETHIHADFVSGAREMADRAGAAICVSDEGPPEWKSEYVKAYPHRLLKDGDELHFGNVRIVVMHTPGHTPEHVSYLLYDGKTSPDVPMALFSGDFVFVGDVGRPDLLERVAGESGSSEALARQMFRSLRKFEALPDHVQVLPAHGAGSACGKALGAVPSSTVGYEKLVNWALQHKDEDAFVQALLAGQPEAPIYFARMKLVNKVGPRLLAELGAPERVDLPPERVRAWREGGVVLDVRPADAFAKRHLAGSLNIPWNKSFVTWAGWLLPADRPIHLLAADAIAPDVIRALRSIGIDDVVDWTDPAAVDRAAPDDVASYANVSPDEVRGALAQQGLWLLDVRNVDEWAGGHLPQAHHIPLSKLAAHIHDVPRDGSVCVYCRTGGRSAIAASLLRAHGVGDVRNMVGGYEAWRGKGFPVEA”, for which the protein production result is “not failed”.

Take “MPTVAPTTVKPTTIPKETTTIAFTTDSSIEKPFGLDVSQASVGYVNIVWGRGTIDCYNVYVDGERRRTGISAQSLKLPVYTEGTHTIAITTVVGTRESEKLEVQVAITGTGEKETEPETCPEELKPQLKKNVPLRDDRIAIELNNKTNGKYSDSEIYWCILGNNENNQLCYMDKDGNMIPASESLNTVEVNGTKYANIYHTLAESDHVYAPTIRSGRMYLSYGKPVYVKFNGSTGYAGPDLNNPGDVNANTLFEFAEFTIEGKNYWGNTTRVDYFCFPMVTRLIGGSLYGGYDNVVGDIGTRDEIFTAFKNEVPNEYKSLVRDDRIIAPCKSTFNVGQDNGNYFDNYINEFWNKYANEDLRFSSESGSFVGRVVGNQMRFTREGDSTVYYVDKPNTQEVLEGKGAFDRGNGVEKAIEAQLCAAFNRGVATEPDKWYTPSQYYKNSVANFYAGFFHEHSVLGKAYGFCYDDVNDQSTLLQYNKADALVIDLKW”: the protein production entry is given as “failed”.

Regarding “MFDIGVNLTSSQFAKDRDDVVACAFDAGVNGLLITGTNLRESQQAQKLARQYSSCWSTAGVHPHDSSQWQAATEEAIIELAAQPEVVAIGECGLDFNRNFSTPEEQERAFVAQLRIAADLNMPVFMHCRDAHERFMTLLEPWLDKLPGAVLHCFTGTREEMQACVAHGIYIGITGWVCDERRGLELRELLPLIPAEKLLIETDAPYLLPRDLTPKPSSRRNEPAHLPHILQRIAHWRGEDAAWLAATTDANVKTLFGIAF”, the protein production entry is “not failed”.

With “ASIYKNKKSHEQLSALKGSFCRNQFPGQSEVEHLTKVTGLSTREVRKWFSDRRYHCRNLKGSR”, the protein production result is “not failed”.

As for “TLEWPELLQQCEQLNKPNQINLNPALLWQCQGVGSAPPASNLRESRIKAVLAINPVTNPIFGPDGMKNLAVPTLIVAGSKDIFAPPVPEQIIPFSLIEGVNKYLLLVQNGTHLSFLEDTDNLPEKIVGPGQDLAYTYMKSLGLAFFDLYLQQDSSFKPYLTDSVVQQMSQEPLPLQLVPSL”, the protein production result is “failed”.

With “MQPDTQEIVVDEVFPHAPETIWKTLTTAELMGRWLMMPAGFEPIEGKRFTYQTTPAGDWDGTIHCQVLEVKPNERLTYAWKGGHAGNTGYGSPLDTVVTFILSRAGNGTRLRLVHSGFVLPKNETAYRKMGEGWKKVVKNIGALAGGEDLEHHHHHH”, the protein production result was “failed”.

In the case of “MSIFNKDALSSFFGLSGEEDDYYDNYEEYEERKAVNEPPRRAARPKPQRPVQQQESYSQPAYTQQSEPVVEKPSARYRSAEAHQERDTQQAAYTEKKVVSMRSSNQSATTNTRRAQESTANAKTHKITIIEPRVYSEAMSIAKHLFAEEAVLVNFTLVEEDQARRIVDFLTGTVYALDGDIQRVGNEIFLCTPANMEIDSATAQSLANKQFFDFLEHHHHHH”, the protein production result was “failed”.

In the case of “MSFCKLVSFVLILHLLNSCLISCSSNDLSQIPKNFLSLAKREDFFDWMVGIRRRIHENPELGYEEVETSKLVKTELDKMGVSYKNPVAVTGVIGYVGTGHAPFVALRADMDALPIQEMVEWEHKSKIPGKMHACGHDAHTTMLLGAAKLLKEHQEELQEGGAGAKKIVEAGVLENVGAIFGLHVSNLLGLGQLSSREGLLMAGSGRFKATISGKGGHAALPQFAIDPVLAASNVILSLQHLVSREADPLDSQVVTVATFEGSDAFNVIPDSVTIGGTFRALLPKSFEQLKQRIVQVITTQASVNMCNATVDFLEDETPPFPPTVNNKTLHLFYKNVSVDMLGIENYVETLPVMVSEDFAFYQQAIPGHFSFVGMQNKSHSPMANPHSPFFEVNEELLPYGASLLASLATRYLLDSSSSPNKDEL”, the protein production entry is “failed”.

Turning to “MKPVKVGICGLGTVGGGTFNVLERNAEEIARRAGRGIEVAQIAARRPNPKCDTGATPITADIFDVACNPEIDVVVELIGGYTLAHELVLKAIENGKHVVTANKALIAVHGNEIFAKAREKGVIVAFEAAVAGGIPVIKAIREGLSANRINWLAGIINGTGNFILSEMREKGRTFPDVLAEAQALGYAEADPTFDVEGIDAAHKLTILASIAFGIPLQFDKAYTEGISKLTSADVNYADALGYRIKHLGVARRTESGFELRVHPTLIPSDRLIANVNGVMNAVMVNGDAVGSTLYYGAGAGMEPTASSVVADLVDVVRAMTSDPENRVPHLAFQPDALSDHPILPIEACESAYYLRIQAKDHPGVLAQVATILSERGINIESIMQKEAEEQDGLVPMILVTHRVIEQRINDAIAALEALEGVSGPVVRIRVEQL”, the protein production entry is recorded as “not failed”.

With “MPKLPPLSLYIHIPWCVQKCPYCDFNSHAQKSDIPEQDYIYHLLQDLQADLQRFKDSIQQRKLHSIFIGGGTPSLFSAESIAYLLKEIKKQIDFEDNIEITLEANPGTVEAERFKGYVSAGIMRISMGIQSFNDDKLQRLGRIHNAAEAKSAVNLAKVSGLKSFNLDLMHGLPNQTLEEALDDLRQAIELSPPHISWYQLTIEPNTMFAYRPPKLPDDDALWDIFEQGHQLLTMAGYQQYETSAYAKAGFQCKHNLNYWRFGDYLAIGCGAHGKLTFPTGEITRFSKTKHPKGYLRGEYLYEEKNVPKIDRPFEFFMNRFRLLEAVPKQEFEDYTGLSQSAVKNQIDFAIQQNYIVENADSWQITEHGKLFLNELLELFLTEELEHHHHHH”, the protein production entry was “not failed”.

As for “MSSSGIEIAKPFVTATTNVLSTMAGIQPIPGQPYVKKNNVAKGDVSAVVGITGHKNGSISVTFTKQCAIAVVKAMLGDDIQDIIQDTKDAVGEVTNMISGQARAALSEMGMTFQGATPSVIMGDGHTISHVTKSPVIAIPFKTNHGEFTVEFCLE”, the protein production result is listed as “not failed”.

Take “MTAPKVFVSHASEDKARFVVDFARRLRENGVDAWLDQWEMKPGDSLVDKIFEEGLREARAVVIVLSATSVRKPWVREELNASVVNRISRGTKLIPVVIDDCDVPEALRSTVWQKIDNLDDYGESLQRILSVIFDVTDKPALGAPPARFAGPAPLIAGLSRVDDLVIRVIARRQIDEGAGLVEWDRLKAEPILRDVPQQELLDSLEILKRHDFIRVREVIGALHVVLTDLGFLKFAEAYVDDYQGTVNQIAALLVNENVRQNRELAARVNKPVAFIDFVLNLMESNGYIKVSKYIGGQSHVREVSASLRRALQSA”: the protein production result is listed as “failed”.

As to “MKKLKRAYKMEINPTDEQKSKIHQTIGVSRFIYNFYIARNKEIYEKEGKFVSGMDFSKWLNNEYIPNNQEMKWIKEVSSKATKQAIMNGDKSFRDFFKKAKGFPRFKKKKNQDVKAYFPKNNKTDWTIERHRVKIPTLGWVRLKEFGYIPTNSIVKSGTVSQKADRYYVSILVEETDIKISNSNIGIKIFNHNNEGIGIDLGIKDFAICSNGNKFKNINKTSTIKKVEKNLKREQRKLSRKYESLKIRNKKEKGGNVTRQNIQKQIVKVQKLHQRLTNIRTDYINKIVSSIIKQKPSYITIEDLNVKGMMKNKHLSKAIASQKFFEFKTKLMSKCKQNDVELRIVDRFYPSSKTCSQCGEIKKDLKLSDRVYKCSCGLVIDRDLNASINLRNAKEYKIALEHHHHHH”, the protein production result is given as “not failed”.

Take “MNFFTSPFSGIPLDQQVTNPNIIVGKHSYYSGYYHGHSFDDCVRYLHPERDDVDKLVIGSFCSIGSGAVFMMAGNQGHRSDWISTFPFFYQDNDNFADARDGFTRSGDTIIGHDVWIGTEAMIMPGVKIGHGAIIASRSVVTKDVAPYEVVGSNPAKHIKFRFSDVEIAMLLEMAWWNWPESWLKESMQSLCSSDIEGLYLNWQSKART”: the protein production entry was “not failed”.

As for “MSLKYIIGMDVGTTATKGVLYDINGKAVASVSKGYPLIQTKVGQAEEDPKLIFDAVQEIIFDLTQKIDGKIAAISWSSQMHSLIGLGSDDELLTNSITWADNCAKSIVQDAKNRGFAQQIYRKTGMPMHPMAPIYKLLWLKNKKTEVFSQAQKWIGIKEYIIFRLTGKLVTDTTMAAGTGILNLKTLTWDQELLDILKIKKEQLPKIAQPTKVIFPIKTEYVKKLGIDSDTKIILGASDGYLSTIGVNAIDSDHCALNVGTSGAIRTIVDQPKIDPSASYFCYPADKTHYLLGGPVNNGGIVFNWARQTLFDADETPQDFLDVAQTAPAGSRNLIFLPYLGGERAPIWDANARGSFVGLTRMHQKPEMARAVIEGIIFNLYDAASNLIKNTKKPVAINATGGFLKSDFVRQLCANIFNVPIVTMKEQQSGTLAAMFLARQALGLNQDLSEIGQFAQADKVYFPNPKEAATYQKLFPLYCEIRNALAASYGKFSNINEGHHHHHH”, the protein production entry is “not failed”.

“MKSYTKHTHTNRLASESSPYLLQHAHNPVEWFPWGEEALQKAKAEDKPILVSIGYSACHWCHVMEHECFEKEEVAAVMNDLFINIKIDREERPDLDQIYMDAVSAMGLRGGWPLNVFLTPDAKPFYGGTYFPQDHWLNLLGQISNAYLNHREDILKSAESFTESLNQSDVF”: the protein production result is reported as “not failed”.

As for “MRICMVSDFFYPSIGGVEEHVYNLSQMLLSLGHKIVVLTHAYGDCSGIRYVTGYLKVYYLPIKVCYNQCILPTAVCNVPMLRAVLLRERVEVVHGHSAFSALAHEALMVGSLLGLKTVFTDHSLFGFADLSAALTNNLLEVNLGMVNHAICVSHIGKENTVLRARVAKHRVSVIPNAVDTALFTPDPQQRPSNDIINIVVASRLVYRKGIDLLAGIIPRFKNTPNINFIIVGDGPKRDLLEEIREKTNMQERVQMVGAVEHNRVRDFLVRGHIFLNTSLTEAYCMAIVEAASCGLQVVSTSVGGIPEVLPKSLILLAEPEIDAIYAAILIAIDRHRKSSFKVSPSVGNGHLASDANGKVKRRRRRKVDTPISPTQLPAVSAPPADQNSSTEPVMCPYRCNELVETLYNWEDVALRTVKVYDRVLNERSFTTSELVFAVWQHGSWFLVFFVVAHFLMRLLELWRPRKHVEIAQDVQRRAS”, the protein production result was “failed”.

“IIAKKTNDIQQDIILHSEFANRHGLIAGATGTGKTVTLKVMAESFSRIGVPVFLADAKGDVSSIAKAGSDNPKFDARIKSLGIESIPFAASPTIFWDLFGEQGHPIRTTISEIGPLLLAQMLNLNDTQEGVLSALFRIADDQGLLLIDFKDLKAMLSYVSENAADLKAEYGNLSPASIGAIQRNLLALGDQGGEQFFGEPSLNILDFIQTDSNGHGYINVLAADKLMNTPKLYATFLLWMLSELFEQLPEVGDLDKPKLVFFFDEAHLLFDNASPALQQKIEQVVRLIRSKGVGIYFITQNPLDLPESVLGQLGNRVQHALRAFTPKDQKAVKTAADTFRANPEFKVDQAITELAVGEALISCLDEQGTPQIVERGWVMPPYSSFSPLSPQERQAFMAQSIVAGVYENAVDRDSAYEMLQRKVNESTAQQQAQAEAKQQEANAKQQAKEQERLAREQQKAEEKAQRDREKLTQDVIGTFAKSAARTLGGPTGQKLVRGLLGSLFGKR”: the protein production result is “failed”.
